According to PMC5676521:

Substrate: C[S+](CC[C@H](N)C(=O)[O-])C[C@H]1O[C@@H](n2cnc3c(N)ncnc32)[C@H](O)[C@@H]1O
Assay: purified protein
Settings: varied: cofactor

B1: PRMT7 (TbPRMT7) (Trypanosoma brucei brucei TREU927) (protein)
chain: MPPKQHRHQKKDKNDNALQNTIGFVPPGATLASVSGYRPPDAFVNRIDRNIPVPARLRHTPVSLIEAVNDFHYAMMNDEERNNFYYEVLKKHVTPETGVLEIGAGSGLLSLMAAKLGAKWVVAVEGSEELAKLARENIRANNMEHQVKVLHMMSTELKSKHLPEPPDVLLSEIFGTMMLGESALDYVVDVRNRLLKPTTKIIPQFGTQYAVPIECDALHRISSVSGWRDLDLKHMMTLQDTVSIVFAKHYGIRMNSVNFRRLSDPIELFRVDFSSSNRNDIPRRKHFDVVAKESGTAHAMLFYWKVTDDEFVMSTDPEDTVNNFPRDMQWGQALQLLDASNGPLPTPVVFTEGKNYNFECNFSGDRVILHMQLCPESGNGEMTECEGKTT
Q: How did the Km turn out when B1 was run?
A: 1.1 ± 0.2 µM

Q: What about the kcat of the same protein?
A: 22.3 ± 0.6 h^–1
